Test: soluble on expression in E. coli; label from the status in PepcDB or PDB records

Soluble on expression in E. coli, not soluble:
MGSDKIHHHHHHMSRFVGTETEYGIATPSNTMLSPIVTSTHAVVAFSLGERCASQARWDFSEESPLRDLRGFDLRRYRTVPVVDPHALGVANSVLINGGRFYVDHAHPEYSSPETSSAFQAMLYDAAGDVVMNRAVELVAENSQRKHSVLEHHDPCPPLKIYKNNVDGKGASYGSHENYLYNRETPFEEISSGLTPFFITRQVIIGAGRVGIGQYGEKSGFQISQRADYIEQEISLETTLNRGIINTRDEPHADSEHFGRLHVIIGDANMSQTSNFLKIGMTTLVLDAIEAGVDFSDLAVANPVAEVSAISHDLTLTHKIVLRDGRTLTALELLDEYRKRVSPQSDDDLDVLKEWSEILVLLQKGPFYAADRLDWCAKWQLISSFIKRGVSIDDPKIQLIDLQYADIDPAKSLYHALVRKGRMRTLVSTEQINNAAWSPPKGSRAYLRGSLISRFPDSVVQASWDSITLQTSRDQATKIKMPVVQSLSAEAIATIDTASSVKEVATILSQWLPVTTISLT
MGSDKIHHHHHHMSRFVVITAAQDFQRKVQSAVRGALHGTVQILPPSVMLGGPQELFGRLSGEPPEVLVLGPGLPGDEALKLATVFDLQYPEISLVLVEDMASEQVINAMRAGIRDIVSPSAEVSELRILLERACLASAGRRRGLVAAAGPERPAGRVIAVMSPKGGVGKTTVATNLAIGLGKIAPMGVVIVDLDVQFGDVATGLQLEPEHTLRDAVGGAAFQDSMVLKAFLTVHPSGIYALCAPNTPGEADHISGEAVSHLLNQMAAEFQYVVVDTTPGLGEHVLATLEQATDAVWVCGMDIPSIRGLHTSFEVLRELQLLPQGRHVVLNFADRRSGLTVQDVEATIGVPVDTVVPRSRAVPFSTNKGVPLLQDSSHDGAARAFAKLVERFDPKRATQPQKKVHRRMVIS
MGSDKIHHHHHHMSRLERLVTIDSLIRSRTYPSVADFCARFELSERAIFADLAYLRERIGAPLAYSRRNGGYYYRDPTWVMPMLQVTEGELLAFLISTELSRRYLGTPFAAPLRRLLQRMEAYITEQIVVHPDALLAHLTFQPGALAAVDPELVQVLHECIRECYPVEITYFTASRQELTHRLIEPYHLFLARGDLHVIAFDHLRGELRQFALYRIRQWQVRRHERFVRNPQIDIAAYLRNGFVVEGGTQPLLIEIAFDREQAPYIRERQWHATQQLEDQPDGGVILRFQSGALGEIKRWVLGYGSHARVLSPPELVQMVADELRKAAALYT
MGSDKIHHHHHHMSSKVKVIAFYLPQFHPIPENDEWWGKGFTEWTSVGRAKKYYRGHYQPRVPADLGYYDLRLPQVRQQQADLAKEAGISAFCYWHYWFGNGKQLLENPLQEVVKLGEPDFPFCLGWANHTWLNKSWNREKQTVIPKPLILQEYPGKKDVDCHFYTMLPMFRDQRYFRIHGKLLFLIYAPLDIPNFKYFKMRWNELASQNDLPGFYFIANSEDISNIKNPIIREFEAVSLCRLYSAWNIEGKKVNNIVIRITRNISRILGYSLNKISYKKAIEKIDTPYYEEDRVYPNIIPGWDNSPRRGPGAFIFHKATPALFKKHVKMILNRIKDKPDEDKVIFLKSWNEWAEGNYMEPDLKWGKGYIRALREALEEDAK
MGSDKIHHHHHHMSTKSLPMDQILNELRSYDRSEHILNHGFDLGTAWWKIELRKAAWTPSGPLAEPTESVRIDRRRLFGMASEIHTGDIDPVDFTLSVVLWGSGSSRRNNRARIQSIVDVEGRVALRQALELASTDAEASFAAFRTNGRNAFAYLGPAFFTKLMYFAGAGSKSHDAYIVDHRVLQTLSRTPAGAGLRAIHNYGPNTYRRACSALEVIASAARVSGCPELADCTGDLVERWAFDVAGAS
MGSDKIHHHHHHMSTPLSHATLEQLFLNARTHSHWQPRPVSDELLHQLHELLKQAPTSANCSPARFVFVKSEAAKAKLKPCLAAGNVDKTMAAPVCVIVAHDTRFYEHLPQLFPHADAKSWFEGNQPLIDTTAFRNGTLQGAYLILAARSLGLDCGPMSGFDNAAVDAAFFPDGRVKSNFLINLGYGEADKLFPRSPRFGFDEACQIL
MGSDKIHHHHHHMSTPVLNLDPDTLLMSSKDARAAAAPYAAEYQGRGPFNYGGYDNFLNPEILERVREELKQLPEAANSYDRPQERLKTSYVPERLPMYTRQLFYALNSRPMLAFIEELTGIKGLIPDPYFAGGGVHVVANGGHLDIHADFNHHAGLNLERRVNLLIYLNKDWREEYGGSFEVWDENMAGKLASYVPLFNRMCMFSTSSESWHGNPEPVNHPDGEPRMSIALYYYTATWDSTRKSHTTLFKPRPGTKDQRDRQVARRELLQDLLPPVLHRKLAWRLEKLGF
MGSDKIHHHHHHMSTTMQVIELNGPNRLSISQRQVPETPVDGVLLKTSAVSICSTDISHYHGNLLAEDYPVILGHEYSGIVVDVGPECPSSLQGQRLAYFGQTDFGGMAEYRALRPLFAGDLRSSPFKTGRFFKDDERAAAITLPDEISDSDAPLIEPITAVLRSILTHPPAVGNRVLVLGGGPCGAIAGAILQTLYATKSVAVLERNQARQEIARSQYANFVFGSAEELRESDDDAFDYVFDALPPLVNIEADSCPRRAAMRAAKPGSKYVLYGASQTLQQFDTWLLLAKGITLASAAFDVDHFPMYKTAFVMKTAKELLLRRIIDPGWMMTNHMSFWRPQEVIQFFAEYYTTPHLKTVIHFDQ
MGSDKIHHHHHHMSTYKINNEQLTLIKEMPFKLEKEIQNIVERNLQTLLGLDFIKTEFSIGSFRIDSLAFDSEKKSFVIIEYKRDKNFSVIDQGYAYLSLMLNNKAEFILEYNESKSGALKRNDVDWSQSKVLFVSPNFTTYQKEAINFKDLPIELWEIKRFTNDTLSFGQIVNRSSKESIKTVSNSEAITTVSKEIKVYSEQDHLENIKDDFLNIYTEIKEFLLSFGEDITIYPKKKTIGFKIGGKVFCDIVMQNKGIRLFLNAKKGTLKDPEGITRDVSEVGHWGNGAYEVRFPLKNDAEIDFVFNLLRQTINKNKE
MGSDKIHHHHHHMSVRVNNLLKLPSLREATVLSGKNQLDTSVASLSFLEVSDMSLFSEKLHKTNEYHAGEILIGSFCAIRHDVVKQCETIRHLHELGEVGLILYYVGIIVPKVAEEVIQLADSLGFILIQMPKNDPTLRYNEVIYEVMKLLVNKNKMASFATDLLEKVSLLPEQNRSVEMTLKILSDFLKVNIALTTYTNEIISTINWPRSTKLPLTKLLYQSQEKVALGETTYFITSQKLPQKDGQTLKLYFIREEEQLTSFEMNQAVEVVQMALNLWGKNYDEVSEYALVQAIINDESDKMYQLAKKLMIDISSVETMWLLPIWQQGQEIHAIQQDLKDFLRYYYQTTIVQQTENYLIVLLGNYLHKQPEATISKEYLQATDYQDYLGEIILCPKVRNTTEVRVSYQTANQVAPFLKRVYPQRKVLSIAEIRTVQQMMTCLQAGEEAIQQRLAVIQPLLKESEQLMTLGTFLLDASSDFNECGERLFVHKNTVKYRISKINEALGYDMTNAAEAYEVYLAMILYRLVTNE
MGSDKIHHHHHHMSYRIVVDPKEVVKPISRHIYGHFTEHLGRCIYGGIYEEGSPLSDERGFRKDVLEAVKRIKVPNLRWPGGNFVSNYHWEDGIGPKDQRPVRFDLAWQQEETNRFGTDEFIEYCREIGAEPYISINMGTGTLDEALHWLEYCNGKGNTYYAQLRRKYGHPEPYNVKFWGIGNEMYGEWQVGHMTADEYARAAKEYTKWMKVFDPTIKAIAVGCDDPIWNLRVLQEAGDVIDFISYHFYTGSDDYYETVSTVYLLKERLIGVKKLIDMVDTARKRGVKIALDEWNVWYRVSDNKLEEPYDLKDGIFACGVLVLLQKMSDIVPLANLAQLVNALGAIHTEKDGLILTPVYKAFELIVNHSGEKLVKTHVESETYNIEGVMFINKMPFSVENAPFLDAAASISEDGKKLFIAVVNYRKEDALKVPIRVEGLGQKKATVYTLTGPDVNARNTMENPNVVDITSETITVDTEFEHTFKPFSCSVIEVELE
MGSDKIHHHHHHMSYVAVKGGSTAIRAAHRLVRKRMRGDPDAPEITPRQICEQMHLGVDRVMAEASLYDEDLAARAMLQAQGDMIEAIFLLRAYRATLTRFLDSTPLAMDTMRVQRRISAAFKELPGGQQLGQTYDYSHRLFGYFDRLETKSDIESGKTEVPPEPMTSVMDLLEKEGLMELAAACEPPAENMQQDITRHPLLFPATRAQRLQSLARGDEGFLLSMAYSTQRGYGQNHPFIAELRMGDVTVEITPPELGFPIEIGTITVTECQMINQFQARSPEEAAFTRGYGLVFGHSERKAIAMALVDRALRAGELGEEALSPAQNEQFVLSHCDNVETTGFVEHLKLPHYVDFQSEIQTLRHLHKTAAKDGADRV
MGSDKIHHHHHHMTAAESIYALYPYIQHAQLLAHNEKIKQDNVIFTYTVSLSYDEISLRVLHVDSDNTKHIHIQVLFEINQGKIYVKDLYHNSGAAFELLTSIKSNPSLHQASFAQNSVPASWLSRDILNSLAIADRIAQKAINQYAGDDYRPGYYSQIECSGTQLILSQINHMNSRSLSHKENYSLRNLTFTIPLNGKADSEMLYNTDRIGIMNINFSDHSSANNRSAGDAVKNQIAEEIRLYQNDVE
MGSDKIHHHHHHMTARNILSYSYEEYVEKITAFHGYPAPGVLIGGFMVDLAVKNLPEGILYDAICETRTCLPDAVQLLTPCTFGNGWLTVLPMGLFAVSLYDKFTGEGVRVFLDVEKMGPWQEIRNWFLKLKTKKEQDSERLFKEIREAGPDILELRNVKLKPGFLEKKHKGKIVLCPQCREAYPAQDGELCLSCQGGSPYL
MGSDKIHHHHHHMTATASSSPKLRVDTRGTNELPPHLDENLLTPRFYVTEFKKAAKTELTDAREEFEAMLSEMKADYNCTHFDRKASLDRLQELPQKAKETYESYLVRSVISEFSGFLLFKEISNRLKKEGNRDLGKLFQFLARDEARHAGFLSRALVAEGIEVDLPHLGGKRAATWFPISWVIYSVYLSEKIGYWRYILMDRHLKANPDQAFAPLFDFFEPWCQDENRHGDCFTVMMRCWPGITKGFRGKLLSRFFLWSVFLTHTLTVCERGEFYELLGIDPKEFDEEVIKRTNHTSKNAFPWVFNLDDNKFWDLRNKIIESFRAFVGAKGLTKPVKFVKFATLIFKQFALPMEKTDALRYDKNVNFTGQDILNFWTDK
MGSDKIHHHHHHMTDNQLLMQEALEWKMHFLRKDSMFERFSKRVQTKVNERIPEKIHTVVTESVKKMVEATMAGSNIITYKKDTSALSLSEKNELAKKTIVSYQKVAAAEGVGTGAGGIFLSIADFPLLLSIKMKCLFTLSSIYGFDVKDAQERIFLLLVFQLAFSSDDGRKSLFSVIENWETEKKSIDWRVFQQEYRDYIDVVKLFQLLPGVGAAVGGIANYKLLAQLGETARHVFHLRILKETAGE
MGSDKIHHHHHHMTEDIIKKYRGKLPESILEQWHLFGFAGYLNGLYWITNPDDYAEVIYDWLEETPLPDDDVYHVLARSAFGELLIWGERNYGRYYIKTMEGILHDNGEQLESAEFYGSDFFFLPKKNYLDYTDKNGNKLFDRAVKKLGVLKADEMYAFEPALALGGEESLQHLTKVNLPVHMKLLKQVTPLRLRTFEDLTAALYGTSYSVDDLTSGQDAESQYQESVQAGEVCPRTGYWTTPAQPNTRHYCKKGEVLPEIKEQDWGEVYWYWDGEN

Source: the DeepSol protein solubility set
